± gives the standard deviation.

This data set is described as follows: collision cross section of unmodified peptide (TIMS, N2, iRT-aligned); higher = larger / more extended gas-phase ion. An outline of the steps:
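Collision cross section values rest on the Mason-Schamp equation applied to calibrated, run-aligned mobility data from synthetic peptides. Mobility (1/K0) was calibrated with three reference ions and aligned per run to the median iRT peptide deviation, and 1–3 technical replicates of the most abundant feature per charge state were averaged. Data came from a timsTOF Pro/HT in dda-PASEF mode (nitrogen, ~2.4 mbar) after a 120-min nanoflow C18 gradient at 60 °C.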

For the substance GGQGPPGPQGPIGYPGPR, the collision cross section reads like this: (charge state: 2) 419.74 ± 1 Å²; (charge state: 3) 520.51 ± 0.87 Å².

Take AAGQPYEQHAK: the collision cross section is given as 373.09 ± 0.48 Å² (charge state: 2) and 423.62 ± 1.7 Å² (charge state: 3).

With SEASSEFAKK, the collision cross section is, setting by setting: (charge state: 2) 351.87 ± 0.55 Å²; (charge state: 3) 422.04 ± 3.9 Å².

Consider IFDSEEILAGYK, for which, where the note is “charge state: 2”, the collision cross section was determined as 391.02 ± 0.47 Å².

DVFISAAER showed a collision cross section (charge state: 2) of 340.13 ± 0.68 Å².

With VSPASSVDSNIPSSQGYKK, the collision cross section is, setting by setting: (charge state: 2) 469.69 ± 3.1 Å²; (charge state: 3) 542.55 ± 1.8 Å².

Regarding DYSSGFGGKYGVQADR, the collision cross section reads like this: (charge state: 2) 432 ± 2.6 Å²; (charge state: 3) 489.69 ± 5.9 Å².

For GTVPDDAVEALADSLGKK, the collision cross section was determined as 478 ± 3.1 Å² (charge state: 2) and 520.87 ± 1.8 Å² (charge state: 3).

Where the note is “charge state: 2”, AQPSASLGVGYR registered a collision cross section of 364.53 ± 0.14 Å².

Under “charge state: 2”, VIVGGSSEYK showed a collision cross section of 346.7 ± 0.59 Å².

Under “charge state: 2”, HGVYNPNK registered a collision cross section of 330.7 ± 0.79 Å².

Turning to AQPQDSRGGSK, the collision cross section is, setting by setting: (charge state: 2) 349.19 ± 0.54 Å²; (charge state: 3) 421.45 ± 6.4 Å².

Take GSELQNYFTK: where the note is “charge state: 2”, the collision cross section was found to be 364.76 ± 0.54 Å².

GFPGAPGLPGLK had a collision cross section (charge state: 2) of 357.61 ± 0.4 Å².

As for GITGKPGPK, the collision cross section (charge state: 2) is given as 312.13 ± 0.57 Å².

LLIVSTTPYSEKDTK: the collision cross section reads like this: (charge state: 2) 459.72 ± 2.9 Å²; (charge state: 3) 510.79 ± 5.4 Å².

GEIGPPGPR registered a collision cross section (charge state: 2) of 309.77 ± 3.8 Å².

As for HELQANCYEEVKDR, the collision cross section was found to be 443.76 ± 2.4 Å² (charge state: 2) and 527.87 ± 1.3 Å² (charge state: 3).

Regarding KVTLSVLSR, the collision cross section runs as follows: (charge state: 2) 348.44 ± 0.58 Å²; (charge state: 3) 443.31 ± 0.22 Å².

In turn, FGRGTGLTQPSQR yielded a collision cross section (charge state: 2) of 395.55 ± 1.4 Å² and a collision cross section (charge state: 3) of 470.69 ± 2.1 Å².

Take GRGVGSPEPGPTAPYLGRR: the collision cross section (charge state: 3) was determined as 516.55 Å².

The substance GLPGEPGPR had a collision cross section (charge state: 2) of 309.4 ± 0.22 Å².

As for ASEALLKQLK, the collision cross section (charge state: 2) worked out at 367.26 ± 1.1 Å² and the collision cross section (charge state: 3) is 459.21 ± 3.1 Å².

On to VFIGNLNTLVVKKK, for which the collision cross section (charge state: 3) was 483.04 ± 2.6 Å².

On to YHEDIFGLTLR, for which the collision cross section (charge state: 2) was 388.91 ± 0.75 Å² and the collision cross section (charge state: 3) amounted to 462.33 ± 2 Å².

With HFGPVPPSQGRGR, under “charge state: 3”, the collision cross section stood at 493.79 ± 0.89 Å².

For TSAVSSQANSQPPVQVSVK, the collision cross section runs as follows: (charge state: 2) 457.25 ± 1.5 Å²; (charge state: 3) 542.62 ± 0.28 Å².

Regarding FEGAIYR, under “charge state: 2”, the collision cross section came to 317.08 ± 0.15 Å².

Turning to FIHQQPQSSSPVYGSSAK, for the setting “charge state: 3”, the collision cross section worked out at 514.9 ± 0.21 Å².

With AIEINPDSAQPYK, the collision cross section (charge state: 2) turned out to be 394.83 ± 1.7 Å².

PARGLYSR displayed a collision cross section (charge state: 2) of 333.72 ± 0.072 Å² and a collision cross section (charge state: 3) of 420.97 ± 6 Å².

In turn, LGGDLGTYVINK had a collision cross section (charge state: 2) of 369.28 ± 0.16 Å².

Regarding SSGPGGQNVNKVNSK, the collision cross section is, setting by setting: (charge state: 2) 401.42 ± 1.8 Å²; (charge state: 3) 447.95 ± 4.2 Å².

In the case of SHLRHAIPSAER, the collision cross section turned out to be 388.74 ± 0.39 Å² (charge state: 2) and 458.41 ± 2.7 Å² (charge state: 3).

For the substance ITESVAETAQTIKK, the collision cross section (charge state: 2) was found to be 434.75 ± 1.5 Å² and the collision cross section (charge state: 3) was found to be 508.11 ± 2.5 Å².

With IQQELQTAKK, the collision cross section stood at 374.48 ± 0.53 Å² (charge state: 2) and 429.26 ± 3.7 Å² (charge state: 3).

On to IISSIEQKEENK, for which the collision cross section is on record as 409.72 ± 2.2 Å² (charge state: 2) and 479.1 ± 6.7 Å² (charge state: 3).

Regarding GERGPPGPPGR, the collision cross section is, setting by setting: (charge state: 2) 331 ± 1.5 Å²; (charge state: 3) 441.17 ± 1.4 Å².

On to RGVGAGAIAK, for which the collision cross section (charge state: 2) came out at 327.01 ± 0.73 Å².

For the substance GGGYGGDRGGYGGDR, the collision cross section reads like this: (charge state: 2) 380.24 Å²; (charge state: 3) 463.21 ± 0.23 Å².

As for RFGGPVHHQAQR, the collision cross section reads like this: (charge state: 2) 386.03 ± 0.46 Å²; (charge state: 3) 495.72 ± 1.2 Å².

LLFSNTAAQKLR: the collision cross section (charge state: 2) amounted to 416.62 ± 2.1 Å² and the collision cross section (charge state: 3) turned out to be 485.85 ± 3.4 Å².

As to KFGVLSDNFK, the collision cross section was found to be 368.49 ± 1.5 Å² (charge state: 2) and 446.92 ± 3.4 Å² (charge state: 3).

For DESFLGKLGGTLAR, the collision cross section by setting is: (charge state: 2) 409.59 ± 1.4 Å²; (charge state: 3) 475.21 ± 2.7 Å².

Regarding GGPGAPGAPGPK, where the note is “charge state: 2”, the collision cross section is on record as 323.76 ± 0.58 Å².

Substance GYDVIAQAQSGTGK yielded a collision cross section (charge state: 2) of 388.46 ± 0.16 Å².

Take VGIDTPDIDIHGPEGKLK: the collision cross section by setting is: (charge state: 2) 461.05 ± 2.5 Å²; (charge state: 3) 538.36 ± 1.9 Å².

Consider ISSNFSSIIAEKLR, for which the collision cross section came out at 430.92 ± 3.1 Å² (charge state: 2) and 511.25 ± 4.9 Å² (charge state: 3).

The substance SLFFGGKGAPLQR returned a collision cross section (charge state: 2) of 408.73 ± 1.1 Å² and a collision cross section (charge state: 3) of 446.07 ± 3.4 Å².

DYSQPTAAATVQDIK displayed a collision cross section (charge state: 2) of 421.28 ± 0.57 Å².

Turning to GSYLGGYSAGRGIYSR, the collision cross section is recorded as 455.17 Å² (charge state: 2) and 483.36 ± 2.1 Å² (charge state: 3).

For the substance GGPGSTLSFVGKR, the collision cross section is, setting by setting: (charge state: 2) 395.98 ± 0.53 Å²; (charge state: 3) 456.87 ± 1.5 Å².

Regarding LVFDEYLK, the collision cross section (charge state: 2) is listed as 354.45 ± 0.59 Å².

For the substance ITLSKHQNVQLPR, the collision cross section is, setting by setting: (charge state: 2) 434.86 ± 3.1 Å²; (charge state: 3) 515.94 ± 19 Å².

For YTCSFCGK, the collision cross section (charge state: 2) came out at 338.71 ± 0.48 Å².

For the substance APPIDRSILPTAPR, the collision cross section (charge state: 2) was found to be 416.59 ± 1.1 Å² and the collision cross section (charge state: 3) was determined as 492.42 ± 3.4 Å².

Consider YTQVGPDHNR, for which the collision cross section by setting is: (charge state: 2) 354.55 ± 0.7 Å²; (charge state: 3) 423.12 ± 2 Å².

In turn, SDSGKPYYYNSQTK had a collision cross section (charge state: 2) of 416.14 ± 3 Å² and a collision cross section (charge state: 3) of 478.86 ± 16 Å².

With GLPGEKGER, the collision cross section by setting is: (charge state: 2) 342.99 ± 1.2 Å²; (charge state: 3) 394.07 ± 1.2 Å².

On to LLEQKTQESQK, for which the collision cross section came out at 394.71 ± 1.6 Å² (charge state: 2) and 453.32 ± 3.2 Å² (charge state: 3).

Turning to GFGRGGAESHTFK, the collision cross section (charge state: 2) is listed as 384.5 ± 0.2 Å² and the collision cross section (charge state: 3) was determined as 473.03 ± 1.3 Å².

TGPPGSTGSRGPPGPPGR came in with a collision cross section (charge state: 3) of 459.15 ± 0.33 Å².

For the setting “charge state: 2”, ISPVEESEDVSNK had a collision cross section of 399.42 ± 0.14 Å².

On to VRFHNPR, for which the collision cross section by setting is: (charge state: 2) 337.63 ± 0.7 Å²; (charge state: 3) 406.2 ± 6.3 Å².

Take LAPEYEAAATR: the collision cross section by setting is: (charge state: 2) 358.54 ± 0.15 Å²; (charge state: 3) 432.76 ± 0.89 Å².

Under “charge state: 3”, GEAGPTGPQGEPGVRGIR yielded a collision cross section of 495.75 ± 4.4 Å².

Substance VETFSGVYK registered a collision cross section (charge state: 2) of 332.43 ± 0.59 Å².

SSSAGGQGSYVPLLR displayed a collision cross section (charge state: 2) of 402.55 ± 0.66 Å².

Turning to SKHLQEQLNELK, the collision cross section by setting is: (charge state: 2) 411.35 ± 1.6 Å²; (charge state: 3) 481.15 ± 4.4 Å².

For GLQGPPGK, where the note is “charge state: 2”, the collision cross section came to 292.79 ± 0.8 Å².

On to VTPHPSPRGSPLPTPK, for which the collision cross section by setting is: (charge state: 2) 427.24 Å²; (charge state: 3) 550.88 ± 0.55 Å².

In the case of ANEKTESSSAQQVAVSR, the collision cross section came to 440.94 ± 1.7 Å² (charge state: 2) and 497.75 ± 27 Å² (charge state: 3).

As to PGTPAGYGRGR, the collision cross section runs as follows: (charge state: 2) 352.56 ± 0.57 Å²; (charge state: 3) 442.29 ± 3.7 Å².

In the case of SFSASGAQIVSR, the collision cross section (charge state: 2) is reported as 366.99 ± 0.14 Å².

Consider DAEAAEATAEGALKAEK, for which the collision cross section is listed as 458.36 ± 2.4 Å² (charge state: 2) and 544.24 ± 2.9 Å² (charge state: 3).

The substance GPPGPAGPSGESR came in with a collision cross section (charge state: 2) of 343.88 ± 1 Å².

Regarding AQVLAGGRGK, the collision cross section (charge state: 2) is recorded as 345.66 ± 0.88 Å².

For YILIPASQQPK, the collision cross section (charge state: 2) amounted to 375.08 ± 0.48 Å².

In turn, LGVPGLPGYPGRQGPK had a collision cross section (charge state: 2) of 416.71 ± 0.59 Å² and a collision cross section (charge state: 3) of 493.33 ± 24 Å².

As for ISEILLDHGAPIQAK, the collision cross section is 447.46 ± 0.13 Å² (charge state: 2) and 537.87 ± 1.7 Å² (charge state: 3).

As for TELLPGDRDNLAIQTR, the collision cross section (charge state: 3) stood at 506.52 ± 0.86 Å².

Turning to VYSGHQGR, the collision cross section by setting is: (charge state: 2) 325.3 ± 0.79 Å²; (charge state: 3) 409 ± 1.1 Å².

Consider TLTPASSPVSSPSKHGDR, for which the collision cross section (charge state: 3) was 512.67 ± 1 Å².

Regarding GEPGIPAIPGIR, the collision cross section (charge state: 2) is reported as 347.87 ± 0.23 Å².

The substance SGKFTQQDIDEAK yielded a collision cross section (charge state: 2) of 412.77 ± 2.3 Å² and a collision cross section (charge state: 3) of 486.03 ± 4.9 Å².

Turning to FPGVGVLPGVPTGAGVKPK, the collision cross section runs as follows: (charge state: 2) 467.47 ± 1.8 Å²; (charge state: 3) 560.63 ± 0.35 Å².

For the substance DNNNSNNRGSYNR, the collision cross section (charge state: 3) is 461.19 ± 2.6 Å².

On to GPPGPPGR, for which the collision cross section (charge state: 2) was 295.47 ± 0.78 Å².

Consider VLPSITTEILK, for which the collision cross section (charge state: 2) is given as 373.13 ± 0.14 Å².

These data come from the supplement of paper PMC10598134.
